Assay results published in the supplement of paper PMC9170038.

Test system: MS2 coat protein
Assay: apparent KD of MS2 coat protein; designed switch direction (-1 OFF switch, 1 ON switch): -1; higher = weaker reporter binding
Method in brief: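 Designed RNA switches were transcribed on Illumina chips by stalled E. coli RNA polymerase and titrated with SNAP-549-labelled MS2 coat protein from 0.7 or 1.5 nM, doubling to 3 µM. Step length ran from 0.8–1.5 h at the lowest concentration to 10–20 min at the highest. The apparent KD is the median over clusters for each design, from curve-fitted normalised cluster fluorescence.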

[1] = Eterna round: R95, input ligand: FMN 200 uM
[2] = Eterna round: R95, input ligand: microRNA oligo, concentration not stated
[3] = Eterna round: R95, input ligand: none
[4] = input ligand: microRNA oligo, concentration not stated

Sequence	apparent KD of MS2 coat protein [1] [nM]	apparent KD of MS2 coat protein [2] [nM]	apparent KD of MS2 coat protein [3] [nM]	apparent KD of MS2 coat protein (input ligand: FMN 200 uM) [nM]	apparent KD of MS2 coat protein [4] [nM]	apparent KD of MS2 coat protein (input ligand: none) [nM]
GAUUAUGCGAGCUUUAGGGACAUGAGGAUCACCCAUGUUCGUCUUAUUGGUCUGGAUACACUAACAUACCUAAAUCU [JMF 14] (puzzle: Sensor v3, turn-off variant 1)	19.2	27.9	21.2			
ACAUGAGGAUCACCCAUGUGAAAACAAUGGCUGACUUUGAGAUAGGAUAUUGGUGCAUAUCAAACCAAGAAGGGUCAUUACUGG [Deportation 92 - Jieux - Exclusion NG 3] (Eterna round: R96, puzzle: Exclusion NG 3)				37.5	32.8	48.2
GUCCUGAGCGUUAGGAUAUUCACAGUGGACUACUGGAAGAAGGGACAUGAGGAUCACCCAUGUUCGAUACUGGG [Eternabot (L1) Solution 64] (Eterna round: R97, puzzle: Brourd's mod of Exclusion 4)				72.2		47.2
CUGUUUUCCGCAGGAUAUGCUCCUCCAUUAUUAGCAGAAGGGCGUUGAACAUGAGGAUCACCCAUGUAUGUAAUUGAUUAUUGC [JR_ExcNG1_Sub071] (Eterna round: R96, puzzle: Exclusion NG 1)				54.3	26.3	36.3
GCACGGAGUGUAGGAUAUUAGUGCGAUUAGCACUGAGAAGGACAUGAGGAUCACCCAUGUUCCUCAAUAAAAUACCUUCCGUGC [Eli exng1 - 040] (Eterna round: R96, puzzle: Exclusion NG 1)				13.4	10	13.7
CUAGAUCUUCGGAUCUAGUACAUGAGGAUCACCCAUGUUACGAGUUGAUCCUCAUACAAGCUUUUUGCUCGUCUUAU [Sensor v3 - Turn-off variant 1 - 25] (puzzle: Sensor v3, turn-off variant 1)	16.5	9.03	13.9			
GGCUGCAAUGUAGGAUAUCUGCACGUGUAGUGCAGAGAAGGACAUGAGGAUCACCCAUGUAUAGUAGCUUCGGCUACAGCAGCC [ENG1-D3] (Eterna round: R96, puzzle: Exclusion NG 1)				24.6	12.7	18.2
AGUUGGCGAGGAUAUACAUGAGGAUCACCCAUGUGAGAGAUACUAGUGAGGUCGAUUAGUAGAAGGCGCUGACG [Mat - Exclusion 3 - Mod of JL D76] (puzzle: Exclusion 3)	1170	25.3	49.3			
GAAUGAGAGCAGGAUAUCUUAUCAAUGUACGAAAGAGAAGGGCUCACAUGAGGAUCACCCAUGUGGUCCUAGAU [jl-ex6-4.66 jandersonlee mod] (Eterna round: R97, puzzle: Exclusion 6)				576		78.8
AAGUAGGCAGGAUAUACAUGAGGAUCACCCAUGUGCCUAUACAAGGUAAUCUUGGGAGGUAGAAGGGCCUACAA [ChP 13.04.2015 #3] (puzzle: Exclusion 3)		33				
CUGAUGUUAGGAUAUCAGGCACCCGCCACUGGCAGGGCGCAUGAGAAGGGACAUGAGGAUCACCCAUGUAGUAA [Gelaoren] (puzzle: Exclusion 4)		21.3				
GAAAACCGGUGAGGAUAUUUAUAAUAGAGCUUUAUGAUAUACAUGAGGAUCACCCAUGUUACUUUAAAGAAGGCAUCGGAAAAG [Mat - Exclusion NG 2 - Mod of JL - D94] (Eterna round: R96, puzzle: Exclusion NG 2)				19.1	12.5	18.9
CUUUUGUGAGGAUAUUCAUAGUAGGGUCAUGGCAUUAUUAUGAAGAAGGCACAUGAGGAUCACCCAUGUACCUU [EX4 #49] (Eterna round: R97, puzzle: Exclusion 4)				32.8		21.5
AGCCGGUCGUGAGGAUAUUACAUGAGGAUCACCCAUGUCGACGGGCUACGGGCGGUCGGCUCGUGUGAGAAGGCGCGCCCGGAA [Tibibiza] (Eterna round: R96, puzzle: Exclusion NG 2)				17.3	8.33	17.6
AGCUGUGGCCGAGGAUAUCUGAAAACUCAAACCGAAAUAUAAUCGGACAUGAGGAUCACCCAUGUAGAGAAGGCGGUCUCAGCA [Eli eng2 - 062] (Eterna round: R96, puzzle: Exclusion NG 2)					45.7	
UUAACAUGCUGGUGAUCAUACAUGAGGAUCACCCAUGUAACAAGCUUUUUGUUCGUCUUAUAAUUUAAGAUCACCAG [Stov1/7-B1] (Eterna round: R97, puzzle: Sensor, turn-off variant 1)				21.6		20.3
GGCCCUAAGGUCAGAUUCACAAGCUUUUUGCUCGUUUUAACAUGAGGAUCACCCAUGUCUAGUGGAUCUGAUCCUCU [Sensor v3, turn-off variant 2 (MOD of Indiso v.1)] (puzzle: Sensor v3, turn-off variant 2)	27.5	14.9	31.2			

Sequence	apparent KD of MS2 coat protein [1] [nM]	apparent KD of MS2 coat protein [2] [nM]	apparent KD of MS2 coat protein [3] [nM]	apparent KD of MS2 coat protein (input ligand: FMN 200 uM) [nM]	apparent KD of MS2 coat protein [4] [nM]	apparent KD of MS2 coat protein (input ligand: none) [nM]
AAAGAAGAGAGAAAAUAACACAUGAGGAUCACCCAUGUGAGAAGAUGAGGGUGAUACAGGCUAUAUGCUCGUCUUAU (puzzle: Sensor v3, turn-off variant 1)	62.9	350	104			
AAUUAACAUGUAGGAUAUCUGCACGUUUAGUGCAGAGAAGGACAUGAGGAUCACCCAUGUAUAGCGACUUCGGUCGCAAUAAUU [ENG1/2-B2] (Eterna round: R96, puzzle: Exclusion NG 1)				377	105	131
GUGGCACAUGAGGAUCACCCAUGUCAGGAUAUCGCGUGGUUUUUUUCGGCCGCGCGCGCGAGAAGGGACGUCUU (Eterna round: R96, puzzle: Exclusion 1)				26.8	22.2	30.9
GAAAUCGAAGGAUAUCCGGGUGUCCACAUGAGGAUCACCCAUGUACUGGCCAAUAGCCAGGGAGAAGGUCGCCCAA [EX5 A.3] (Eterna round: R97, puzzle: Exclusion 5)				131		104
AAAAUAAAGAUAGGAUAUGCAGUAUAGCAAGAUCCGGACAUGAGGAUCACCCAUGUACUUCGAAAGCAGAAGGAUCAAACAAAA [Zamale] (Eterna round: R96, puzzle: Exclusion NG 2)				30.3	30	26.6
UGCUACGGAGGAUAUACAUGAGGAUCACCCAUGUGUGAGAUUUGGCCGAGAGGCCAGUGUAGAAGGCCGUAGCU [jl-ex3-4.19 jl mod] (Eterna round: R97, puzzle: Exclusion 3)				615		193
AAACAGCAAGGAUAUACGGGCAGUGCUUAUCAUAUCAUACAACAUGAGGAUCACCCAUGUAGAAGGUGCAACAA [Ex2 #1] (Eterna round: R97, puzzle: Exclusion 2)				108		39.1
UAAUAGGCAGGAUAUACAUGAGGAUCACCCAUGUAAAUUUUUCGUUUAACUUGAAUGUGUAGAAGGGCCAUAAA [Ex3 #53] (Eterna round: R97, puzzle: Exclusion 3)				20.6		22.6
UAGGAACGAGGAUAUACACCUGCAAGUGGUGUGGGUACACCACAUGAGGAUCACCCAUGUAGAAGGCGUACCAA [Lelebi] (Eterna round: R97, puzzle: Exclusion 2)				57.3		12.3
UUUGUCUGUGUGAGGAUAUACUUUGUUUGGUCGUUGUAGAAGGCACAUGAGGAUCACCCAUGUAGUUUGUUGUG [JR_BME4_Sub014] (puzzle: Brourd's mod of Exclusion 4)		20.3				
GUGUUGGUAGGAUAUCCACCGACAAACAUGAGGAUCACCCAUGUGACGCUCCCUUGUCUUGGAGAAGGGCCGGCAU [Riritequla] (puzzle: Exclusion 5)		42.4				
ACGAUGACCGAAAGAUGUCAAAAGACAUGAGGAUCACCCAUGUAGGAUAUGGCUACGAAAAGUAGUCAGAAGGACAUGUCAUCA [Omei Exc(NG) 3 A] (Eterna round: R96, puzzle: Exclusion NG 3)				15.1	12.3	14.8
GGAGCGAUUCUCUUAGCUGACAUGAGGAUCACCCAUGUAUGCAAGCUCUUAUUUUGCUCGUCUUACCGGGAAUUGCU [Uslainar] (puzzle: Sensor v3, turn-off variant 1)	14.8	18.5	13.2			
GGAAGUAGAAACCGAUCCUACAUGAGGAUCACCCAUGUAGCAAGACGUGCACGCGAAGCUCGUCAGACUACCAGAAC [salish99_TOv1_r3_012] (puzzle: Sensor v3, turn-off variant 1)	204	383	521			
AAAUACCGGUGAGGAUAUUUUUAAUAGAACUUUAUGAUAUACAUGAGGAUCACCCAUGUUACUUUAAAGAAGGCAUCGGAUAAA [Mat - Exclusion NG 2 - Mod of JL - D88] (Eterna round: R96, puzzle: Exclusion NG 2)					12.1	
AGUCCUGCGGUGAGGAUAUAUUUGUAGCCAUUCAGGUAGAAGGCACUUGAGGAUCACCCAAGUAAAGAACCAAC [Releat] (Eterna round: R97, puzzle: Brourd's mod of Exclusion 4)				39		28
